Measured values: US20050147555A1
Positions of bridges follow the written chain, without caps; N, C: chain ends. Groups on a side chain read outwards from the residue. *: point of attachment. Biotin = O=C1N[C@H]2[C@H](CS[C@H]2CCCCC(=O)*)N1; AEEA = NCCOCCOCC(=O)O

Target: KDR (VEGFR-2, Flk-1), full-length receptor on cells (human), P35968
Test: competition with 125I-VEGF on KDR-transfected 293H cells
Details: remark: other sources report otherwise

Sequence of KDR (VEGFR-2, Flk-1), full-length receptor on cells (human), P35968 (P35968 20-1356): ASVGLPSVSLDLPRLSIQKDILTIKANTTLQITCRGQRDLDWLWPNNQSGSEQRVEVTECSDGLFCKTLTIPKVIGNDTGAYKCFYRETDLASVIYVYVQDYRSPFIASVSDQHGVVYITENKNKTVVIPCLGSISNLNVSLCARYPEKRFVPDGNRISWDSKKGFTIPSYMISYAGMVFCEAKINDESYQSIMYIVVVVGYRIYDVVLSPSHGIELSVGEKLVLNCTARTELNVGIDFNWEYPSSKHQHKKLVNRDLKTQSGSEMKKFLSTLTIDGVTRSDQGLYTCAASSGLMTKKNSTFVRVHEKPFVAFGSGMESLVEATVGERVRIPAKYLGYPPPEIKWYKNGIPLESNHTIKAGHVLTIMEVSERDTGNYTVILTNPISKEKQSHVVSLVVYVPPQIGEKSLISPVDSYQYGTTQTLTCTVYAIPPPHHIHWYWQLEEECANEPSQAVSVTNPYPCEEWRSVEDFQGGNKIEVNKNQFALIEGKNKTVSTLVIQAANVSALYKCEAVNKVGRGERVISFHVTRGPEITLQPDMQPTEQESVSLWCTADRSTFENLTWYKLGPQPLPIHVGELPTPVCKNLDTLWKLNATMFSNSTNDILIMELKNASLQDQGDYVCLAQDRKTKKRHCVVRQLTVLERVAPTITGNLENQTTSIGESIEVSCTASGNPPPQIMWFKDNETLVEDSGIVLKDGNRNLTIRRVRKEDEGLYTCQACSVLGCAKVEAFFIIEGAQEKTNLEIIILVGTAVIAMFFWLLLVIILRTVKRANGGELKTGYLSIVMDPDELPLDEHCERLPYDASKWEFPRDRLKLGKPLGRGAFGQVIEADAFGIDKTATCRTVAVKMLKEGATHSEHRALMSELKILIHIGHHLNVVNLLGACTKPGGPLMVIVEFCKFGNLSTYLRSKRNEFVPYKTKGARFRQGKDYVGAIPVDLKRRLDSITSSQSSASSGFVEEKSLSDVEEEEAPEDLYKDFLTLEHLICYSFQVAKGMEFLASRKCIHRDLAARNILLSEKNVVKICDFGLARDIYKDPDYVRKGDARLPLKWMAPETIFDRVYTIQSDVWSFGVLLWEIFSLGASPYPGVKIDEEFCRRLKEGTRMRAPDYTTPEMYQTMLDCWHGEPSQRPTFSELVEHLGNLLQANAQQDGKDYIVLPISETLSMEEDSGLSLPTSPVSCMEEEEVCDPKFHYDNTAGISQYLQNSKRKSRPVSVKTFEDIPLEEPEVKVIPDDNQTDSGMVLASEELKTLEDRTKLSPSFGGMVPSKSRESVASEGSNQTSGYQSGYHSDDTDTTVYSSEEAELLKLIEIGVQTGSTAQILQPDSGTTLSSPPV

% inhibition of 125I-VEGF binding at 0.3 µM: 24.4% | % inhibition of 125I-VEGF binding at 30 µM: 48%
B1: P5-XB (peptide)
peptide: Ac-AGPKWCEEDWYYCMITGTGGGK([AEEA-AEEA-Biotin])-NH2
modifications: disulfide 6-13
SMILES: CC[C@H](C)[C@H](NC(=O)[C@H](CCSC)NC(=O)[C@@H]1CSSC[C@H](NC(=O)[C@H](Cc2c[nH]c3ccccc23)NC(=O)[C@H](CCCCN)NC(=O)[C@@H]2CCCN2C(=O)CNC(=O)[C@H](C)NC(C)=O)C(=O)N[C@@H](CCC(=O)O)C(=O)N[C@@H](CCC(=O)O)C(=O)N[C@@H](CC(=O)O)C(=O)N[C@@H](Cc2c[nH]c3ccccc23)C(=O)N[C@@H](Cc2ccc(O)cc2)C(=O)N[C@@H](Cc2ccc(O)cc2)C(=O)N1)C(=O)N[C@H](C(=O)NCC(=O)N[C@H](C(=O)NCC(=O)NCC(=O)NCC(=O)N[C@@H](CCCCNC(=O)COCCOCCNC(=O)COCCOCCNC(=O)CCCC[C@@H]1SC[C@@H]2NC(=O)N[C@@H]21)C(N)=O)[C@@H](C)O)[C@@H](C)O
